This note sets out measurements from article PMC9622860, “Structural and molecular determinants of Candida glabrata metacaspase maturation and activation by calcium” (Communications Biology, 2022).

The test addresses T1, p20 domain of mature CgMCA-I (fragment between the cleavages after R54 and K263) (Candida glabrata, UniProt Q6FPX9 55-263).
T1 construct: Candida glabrata metacaspase CgMCA-I, p20 fragment left after cleavage after R54 and after K263; Residues seen in the maps: from after Gly68 (7QP1) or after Ser72 (7QP0) up to before Asn260; Limits are worked out from the cleavage sites found by mass spectrometry (R54, K263); The N-terminal His tag leaves with residues 1-54; source: E. coli T7 express, purified as CgMCA-I; cleaved by its own …
T1 sequence (looked up): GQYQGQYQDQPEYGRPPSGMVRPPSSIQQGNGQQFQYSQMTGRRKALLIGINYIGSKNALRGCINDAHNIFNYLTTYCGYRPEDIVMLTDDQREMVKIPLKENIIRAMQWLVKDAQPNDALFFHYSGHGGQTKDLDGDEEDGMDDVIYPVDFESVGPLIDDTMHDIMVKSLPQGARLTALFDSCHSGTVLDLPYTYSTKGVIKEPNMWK
Put plainly: crystal structure; fully matured CgMCA-I with Ca2+ (7QP1, 3.0 A) and with Mg2+ (7QP0, 1.6 A); N-terminal part and p20-p10 linker cleaved off. Particulars: both partners purified.

B1: p10 domain of mature CgMCA-I (fragment after the cleavage at R307) (domain or fragment, Candida glabrata, UniProt Q6FPX9 308-392, looked up)
chain: QIKFSPADVIMLSGSKDNQTSADTFADGQNIGAMSHAFISVMTRQPQQSYLSLLQNLRNELAGKYSQKPQLSASHPIDVNLQFIM
notes: Candida glabrata metacaspase CgMCA-I, C-terminal p10 fragment left after cleavage after R307; Residues seen in the maps begin after Ile309; Limits are worked out from the cleavage site found by mass spectrometry (R307) and the stated length of 392 residues; also called p10 subunit; source: E. coli T7 express, purified as CgMCA-I; cleaved by its own maturation before or during crystallisation
With B1, the binding result was “binds”.
